Experiment [1] deals with LZ-EGFR-GFP (chimeric EGFR with the extracellular domain replaced by the c-Fos leucine zipper, GFP at the C-terminus) (UniProt P01100). Description: cross-linking; homogenates of transiently transfected 293T cells in PBS, 6 mM DSS, 30 min at room temperature, quenched with 250 mM glycine; membrane pellet lysed, SDS-PAGE, immunoblot with anti-EGFR and anti-GFP; EGFR-GFP cells stimulated with EGF (100 ng/mL, 30 min).

Experiment [2] shares this target. Description: SDS-resistant dimer on SDS-PAGE immunoblot; total Triton X-100 lysates of transfected 293T cells boiled in SDS-loading buffer with beta-mercaptoethanol, no cross-linker; immunoblot with anti-pEGFR antibodies. (A western blot detects proteins with antibodies after separation by electrophoresis.)

As a reminder, the stoichiometry N is the number of molecules, sites or subunits per partner or assembly. As for “LZ-EGFR-GFP (chimeric EGFR with the extracellular domain replaced by the c-Fos leucine zipper, GFP at the C-terminus) (from UniProt P01100 160-200; P00533 623-1210) (receptor)”, the stoichiometry N in experiment [1] and in experiment [2] was 2 in each case.

(Values after paper PMC5000598.)
